Measurements from patent US6670147.

Columns and labels:
[1] = target: mutated factor X (human FX in which amino acid 194 has been mutated from Arg to Tyr) (human) (UniProt P00742); assay: cell-based or functional assay
[2] = target: nonmutated (wild-type) FX (UniProt P00742); assay: cell-based or functional assay

prostate-specific antigen (PSA) (from UniProt P07288 25-261) (enzyme)
coagulation time (recalcification time in FX-deficient plasma) [1]: 50 s

Russel's viper venom (RVV)
coagulation time (recalcification time in FX-deficient plasma) [2]: 50 s
